B1: BD55-5171 (antibody, V domains shown)
VH: QVQLVQSGSGLKKPGASVKVSCRTSGYSFTDHTINWVRQAPGQGLEWMGWINTATGIPTYAQGFTGRFVFSLDTSVGTAFLLISSLQAADTAVYYCARAASWDYCGNNNCFGDYWGQGTLVTVSS
VL: ENVLTQSPGTLSLSVGERVTLSCRASHSVGSSFLAWYQQKPGQAPRLLIYGASNRATGIPDRISGRGSGTDFSLTISRLEPEDFAVYYCHQYGSSPFTFGQGTKVEIK
B2: BD55-5183 (antibody, V domains shown)
VH: QVQLVQSGGEVKKPGSSVKVSCRASGGTFSGYTISWVRRAPGQGLEWMGGIIPMYGAANYAQKFQGRVTISAETSTGTAYMELSGLTSDDTAMYYCARDLGGEDITVAGKAPDYWGQGTLVTVSS
VL: DIQMTQSPSSLSASVGDRVTVTCRASQSISKYLNWYQERPGKAPKLLIYTASSLPSEVPSRFSGSGFGTDFTLTISGLQPEDFATYYCQQSYSLPYTFGQGTKLEIK
B3: BD55-5226 (antibody, V domains shown)
VH: EVQLVESGGGLVKPGGSLRLSCAASGFTFSSYSMNWVRQAPGKGLEWVSSISMTSSYRHYADSVRGRFTISRDNANNSLFLQMNSLRAEDTAVYFCARDSNLRTGDANDYWGQGTLVTVSS
VL: not shown
B4: BD55-5215 (antibody, V domains shown)
VH: EVQLVESGGGLGQPGGSLRLSCAASGFTFSRYGMGWVRQAPGKGLEWVSVISGSGGATYYADSVKGRFTISRDNSKNTLFLQMNSLRVEDTAVYYCAKDGGQLQLVEIFTFDPWGRGTLVTVSS
VL: DIQMTQSPSSLSASVGDRVTITCRASQGIRNSLAWYQQKPGKAPKLLLYAASRLESGVPSRFSGSGSGTDYTLTISSLQPEDFATYYCQQYYSAWTFGQGTKVEIK
B5: BD55-5201 (antibody, V domains shown)
VH: QVQVVQSGAEVKKPGSSVKVSCEASGGTFSSDTIHWVRQAPGQGLEWMGRIIPIPGIVNYAQKFQGRVTITADKSTSIAYMELSSLRSEDTAVYYCASAPPRGYSGYDLLGNDPLDIWGQGTMVTVSS
VL: QSVLTQPPSVSGAPGQRVTISCTGSSSNIGAGYDVHWYQQLPGTAPKFFISVNNNRPSGVPDRFSGSKSGTSASLAITGLQAEDEAVYYCQSFDSSLSGSYVFGTGTKVTVL
B6: BD55-5189 (antibody, V domains shown)
VH: QVQLVQSGAEVKKPGASVKVSCKASGYSFTTFYIHWLRQAPGQGLEWMGIVNVAGDTTDYAQNFQGRVTMTRDTSTGTVYMELSSLRSEDTAIYYCASPREKGYSGYDFWETTFDIWGQGTMVTVS
VL: EVVMTQSPATLSVSPGERATLSCRASQSISSNLAWYQQKPGQAPRLLIYGASTRATGIPARFSGSGSGSQFTLTISSLQSEDFVVYYCQQYNNWPPIFGQGTKLEIK
B7: BD55-5195 (antibody, V domains shown)
VH: QLQLQESGPRLVKPSETLSLTCSVSGGSIRSNSDYWAWIRQSPGQGLEWIGSISHSGSTYYNPSLKSRVSIFVDTSSNQFSLNLTSVTAADTAVYHCARHPSSGWLILWFDPWGQGTLVTVSS
VL: EIVLTQSPGTLSLSPGERATLSCRASQSISSNFLAWYQQKPGQAPRLLIYGASNRATDIPDRFSGSGSGTDFTLTVRRLEPEDFAVYYCHQYDTSPQTFGQGTKVEIK
B8: BD55-5170 (antibody, V domains shown)
VH: QVQLVESGGGVVQPGRSLRLSCVASGFTFNTYGMHWVRQVPGKGLEWVAVISYDGSNQIYGDSVKGRFTISRDNSKNTVYLQMNGLRAEDTAVYYCATPLHDYSGYDLFDYGYAMDVWGQGTTVTVSS
VL: QSVLTQPPSASGTPGQRVTVSCSGSSSNIGSDYVYWYQQFPGTAPKLLIYRNSQRPSGVPDRFSGSKSGTSASLAISGLRSEDEADYYCAAWDGSISAWVFGGGTKLTVL
B9: BD55-5168 (antibody, V domains shown)
VH: QVQLVQSGSEVKKPGSSVKVSCKASGGSFRSHAISWVRQAPGQGLEWMGCVIPTFDTANYAQNFRGRVTLTADESTSTAYMELTSLTSDDTAVYYCARLFPNGTPDSPTGPLDYWGQGTLVTVSS
VL: DIQMTQSPSSLSASVGDRVTITCQASQGIGNYLNWYQQKPGKAPKLLIYGASNLHTGVPSRFSGRGSGTHFTFTINSLQPEDVATYYCQQYDYVPMYTFGQGTKLEIK
B10: BD55-5198 (antibody, V domains shown)
VH: EVQLVESGGGVVKPGGSLRLSCAASGFTFSAFAMHWVRQVPGKGLEYISLISEDGYSTFYAASVTGRFTLSRDNNKKSLYLQMNSLRSEDTAFYYCAKDIGGTVAGTGADFWGQGILVTVSS
VL: QSVLTQPPSVSGAPGQKVTISCTGDSSNIGAGYTVHWYQQLPGTAPKLLIYGDNNRPSGVPDRFSGSKSGTSASLAITGLQAEDEADYYCQSYDTSLSGLWVFGGGTRLTVL
B11: BD55-5233 (antibody, V domains shown)
VH: EVQLLESGGGLVQPGGSLRLSCAASGFTFSRSSMGWVRQAPGKGLEWVSTISEDGYTPYYADSVKGRFTISRDNSENRLFLQMNGLRAEDTALYYCAKDVDFDKWRQTCFDSWGQGALVTVSS
VL: QSVLTQPPSVSGAPGQRVTISCTGSNSNIGAGYDVHWYQQLPGTAPKLLIYGNNNRPSGVPDRFSGSKSGTSASLAITGLQAEDEADYYCQSYDSSLNVLYVFGTGTRVTVL
B12: BD55-5238 (antibody, V domains shown)
VH: QEQLVESGGGVVQPGRSLRLSCAASGLTFSSYAMHWVRQAPGKGLEWVAVIWYNGLKKYYADSVKGRFTISRDNYKNTAYLQMSSLRAEDTAVYYCAREGGGDILTGNEFEFWGQGTLVTVSS
VL: QSVLTQPPSVSGAPGQTVTISCTGGSSNTGAGYDVHWYQQLPGTAPKLLIFANKNRPSGVPDRFSGSKSGTSASLSITGLQAEDEGDYYCQSYDSSLSGWVFGGGTKVTVL
B13: BD55-5167 (antibody, V domains shown)
VH: QITLKESGPTLVKPTQTLTLTCTFSGFSLTTTGMGVGWIRQPPGKAPEWLALIYWLDDTRYSPSLESRLTLTKDTSKNLVVLTMTNMDPVDTATYYCAHLYYDSSSGYDTTGPDAFDFWGQGTMVTVSP
VL: AIQITQSPSSLSASPGDRVTITCRASQGISSFLAWYQQRRGRAPKLLIHSASTLQNGVPSRISGSGSGTDFTLTITGLQSEDFATYYCQQYYSYPPTFGHGTKVEF
B14: BD55-5239 (antibody, V domains shown)
VH: QVQLQESGPGLVRPSQTLSLTCSVSGGSISSGTYNWAWIRQPPGKDLEWIGHIYHSGSTYYNPSLRSRVNMSVDTSKNQFSLKLSSVTAADTAVYYCARERGPIAEFDFWGQGILVTVSS
VL: DIQMTQSPSSVSASIGDGVTITCRASQGISSWLAWYQQRPGKAPKLLISAAFTLQSGVPSRFSARGSGTDFTLIISNLQPEDFATYYCQQANSFPPTFGQGTKLEIK
B15: BD55-5175 (antibody, V domains shown)
VH: QVQLVQSGPELKRPGASVKVSCETSGYTFTDYAINWVRQAPGQGLEWMGWINTNTGHPTYAQGFTGRFVFSVDMSDSTAYLQISSLKPADTAVYYCARDFQVPEGLDYWGQGTLVTVSS
VL: DIVMTQSPATLSLSPGETATLSCRASYSFTSRLAWYQQKPGQAPRLLIHDASNRAPGVPARFSGSGSGTEFTLAISGLQSEDSAVYYCQQYHSWPLTFGQGTKVEIK
B16: BD55-5228 (antibody, V domains shown)
VH: QVHLVQSGSELKKPGASVKVSCKSSGHTFTIFAINWVRQAPGQGLEWMGWINTNTGNPTYAQGFTGRFVFSLDTSVNTAYLQISSLQPEDTAVYYCVGSNWGDYYFDPWGQGTLVTVSS
VL: EIVMTQSPATLSVSPGERATLSCRASYSLSSNLAWYQQKPGQAPRLLIYGASIRATGFPARFSGNGSGTEFTLTISSLQSEDFAVYYCQQYTSWPLTFGQGTKVEIK
B17: BD55-5236 (antibody, V domains shown)
VH: QVQLVQSGAEVKKPGSSVKVSCKASGGTFTSQAISWVRQAPGQGLEWMGRIITVLGTTTYAQKFQGRLRITADRSTNTAYMDLTGLTSDDTAVYFCARDLDGYSGYDFGSSERRDSFYFDYWGQGTLVNVPS
VL: SSELTQDPPVSVALGQTVRITCQGDSLRTYYASWFQQKPGQAPLLVVYGKNYRPSGIPARFSGSFSGNTASLTITGAQAEDEADYYCNSRDSNNDHHVIFGGGTKLTVL
B18: BD55-5196 (antibody, V domains shown)
VH: QVHLVQSGAEVRKPGASVKVSCKASGYTFTSYFMYWVRQAPGHGLEWMGMIDPISGSTNYAQRFQGRVTMTRDTSTSTVNMELTSLRSEDTAVYYCARDGGIRFGDLSPDNWFDPWGRGTLVTVSS
VL: QSVLTQPPSVSGAPGQRVTISCTGSSSNLGAGYDVHWYQQLPGTAPKLLIYGNNNRPSGVPDRFSGSRSGTSASLAITGLLAEDEADYYCQSYDSSSLSGSKVFGTGTTVTVL
B19: BD55-5200 (antibody, V domains shown)
VH: QVQLQESDPGLVKPSQTLSLTCTVSGGSISGGSNFWNWIRQPAGKGLEWIGRIYTSGNTDYNPSLKSRVTISVDTSKNQFSLRLSSVTAADTAVYYCARDRLSGKVEVAINHFSYGLDVWGPGTTVTVSS
VL: SHELTQPPSVSVSPGQTARITCSGDALPKQYAYWYQQKSGQAPVLVIYKDSERPSGIPERFSGSSSGRTVTLTISGVQAEDEADYYCQSADSSNIYLAFGGGTKVTVL
B20: BD55-5182 (antibody, V domains shown)
VH: EVQLVESGGGLVKPGGSLRLSCAASGFTLSNAWMTWVRQAPGKGLEWIARIKGKVDGATRDYAAPVKGRFTISTDDSKTTLFLQMNTLKTEDTAVYFCTALFTSYDMLTGRAGGRGYWGQGTLVTVSS
VL: NVMLTQPHSVSESPGKTVTISCTRSSGSIASNYVQWYQQRPGSAPTTVIYEDNQRPSGVPDRFSGSIDSSSNSASLTISGLETEDEADYYCQSFDSSNHMNWVFGGGTKLTVL
B21: BD55-5223 (antibody, V domains shown)
VH: EVQLLESGGGWVQPGGSLRLSCAASGFTFSSYAMSWVRQAPGKGLEWVSAISNTGGSTYYADSVKGRFTVSRDDSKNTLYLQMNSLRAEDTAVYYCAKNWDSIGYTSGWQHLDWFDPWGQGTLVTVSS
VL: DIQMTQSPSSLSASVGDRVTITCRASQSINTYLNWYQQKPGKAPKLLIYVASSLQSGVPSRFSGSGSGTDFTLTISSLQPEDFATYYCQQSYSSPSITFGQGTRLEIK
B22: BD55-5219 (antibody, V domains shown)
VH: QVQLVQSGSELKRLGASVTLSCKASGYTFTNYAINWVRQAPGHGLQWMGWINPDTGTPTYAQGFAGRFVFSLDSSVSTSYLQIRSLKADDTAVYYCARDANQWPRNQWFGPWGQGTLVTVSS
VL: DIVLTQSPDSLAVSLGERATINCKSSHSVFYSSSNQNDLAWYQQKPGQPPKLLIYWASIRESGVPDRFSGSGSGTDFTLTISSLQAEDVAVYYCQQHYSTPLTFGGGTKVEIK

Target: SARS-CoV-2 (WT) Spike RBD Protein (His Tag) (SARS-CoV-2 ancestral (Wuhan-Hu-1), UniProt P0DTC2)

| Binder | binding result |
| --- | --- |
| B1 | binds |
| B2 | binds |
| B3 | binds |
| B4 | binds |
| B5 | binds |
| B6 | binds |
| B7 | binds |
| B8 | binds |
| B9 | binds |
| B10 | binds |
| B11 | binds |
| B12 | binds |
| B13 | binds |
| B14 | binds |
| B15 | binds |
| B16 | binds |
| B17 | binds |
| B18 | binds |
| B19 | binds |
| B20 | binds |
| B21 | binds |
| B22 | binds |
